In patent US20250074996A1 (Innovent, published 2025):
Like-named read-outs stand apart in the source and are kept apart here.

What was measured:
human GPRC5D [1] = target: T1, human GPRC5D (human, UniProt Q9NZD1 1-345); assay: flow cytometry on H929 cells
T1 construct: whole, on cells; also called huGPRC5D; G protein-coupled receptor family C group 5 member D
Protocol: (§1) The affinity of the anti-GPRC5D antibody was detected by flow cytometry. Antibodies at various concentrations were co-incubated with cells expressing human GPRC5D, including GS-CHO cells overexpressing human GPRC5D (huGPRC5D GS-CHO), multiple myeloma cells MM1.R, H929 and AMO-1, for 30 min. A fluorescently-labeled secondary antibody (APC-mouse anti-human IgG Fc antibody, Biolegend, Cat #409306) was then added, the cell fluorescence intensity was detected using a Live/Dead yellow dead cell stain (Thermo Fisher, Cat #L34967) by flow cytometry, a curve was fitted using GraphPad Prism 8.0, and the EC50 value was calculated to show the binding affinity of the antibody to human GPRC5D.
(§2) Among the antibodies detected, HB15H1G1 (the heavy chain variable region of SEQ ID NO: 25, and the light chain variable region of SEQ ID NO: 26) was a fully human antibody, and ch5E12C4 (the heavy chain variable region of SEQ ID NO: 98, and the light chain variable region of SEQ ID NO: 99), ch11B7 (the heavy chain variable region of SEQ ID NO: 100, and the light chain variable region of SEQ ID NO: 101) and ch7F5D4 antibodies (the heavy chain variable region of SEQ ID NO: 27, and the light chain variable region of SEQ ID NO: 28) were chimeric antibodies.

human GPRC5D [2] = target: T1, human GPRC5D; assay: flow cytometry on AMO-1 cells
Protocol: as §1, §2

human GPRC5D [3] = target: T1, human GPRC5D; assay: flow cytometry on MM1.R cells
Protocol: as §1, §2

human GPRC5D [4] = target: T1, human GPRC5D; assay: flow cytometry on huGPRC5D-GS-CHO cells
Protocol: as §1, §2

[5] = target: T2, CD3E on the surface of Jurkat-NFAT-Luc cells (UniProt P07766 23-207); assay: cell-based or functional assay
[6] = target: T2, CD3E on the surface of Jurkat-NFAT-Luc …; assay: cell-based or functional assay; remark: listed apart in the source
[7] = target: T2, CD3E on the surface of Jurkat-NFAT-Luc …; assay: cell-based or functional assay; remark: listed apart in the source
[8] = target: T2, CD3E on the surface of Jurkat-NFAT-Luc …; assay: cell-based or functional assay; remark: listed apart in the source
[9] = target: T2, CD3E on the surface of Jurkat-NFAT-Luc …; assay: cell-based or functional assay; remark: listed apart in the source
human GPRC5D [10] = target: T1, human GPRC5D; assay: flow cytometry on huGPRC5D GS-CHO cells
Protocol: as §1
In the exemplary trispecific antibodies, the binding affinities of the antigen-binding sites from the humanized antibodies hz5E12.1.P1 and hz11B7.5 to GPRC5D were detected.

Human BCMA-Bio = target: T3, Human BCMA-Bio (human, UniProt Q02223 1-54, biotin-labeled); assay: BLI (Octet Red96e), SA or AHC sensors, 1:1 fit
T3 construct: Bought antigen; also called human BCMA antigen (ACRO Biosystems)
T3 sequence (looked up): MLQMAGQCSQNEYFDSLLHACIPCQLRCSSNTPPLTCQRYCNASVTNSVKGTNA
Protocol: (§3) Sensors (Fortebio, Cat #18-5019) coupled to streptavidin protein (SA) or anti-human-Fc (AHC) were pre-wetted by immersion in 200 μL of SD buffer (1×PBS, 0.1% BSA, 0.05% tween-20). Exemplary antibodies and biotin-labeled or Fc-tagged BCMA and CD3D&E heterodimer antigens were diluted with SD buffer, respectively. 200 μL of SD buffer and diluted samples (100 nM) were taken and added to a 96-well black plate (Greiner, Cat #655209), respectively. The sensors and the samples were placed in Octet (Fortebio, Red96e). Data Acquisition 10.0 was executed and “New Kinetic Experiment” was selected. The sensors were arranged according to the positions of the samples, and the operation procedures and times were set as: Baseline 60 s, Loading 250 s, Baseline 100 s, Association 600 s and Dissociation 600 s. The experiment was conducted at a rotation speed of 1000 rpm and 30° C.
(§4) The results were analyzed in “Data Analysis 10.0” software, with the buffer reference channel being subtracted. 1:1 binding was selected to fit the data, and kₒₙ, koff, and KD values for the exemplary antibodies were calculated.
(§5) In the experiments performed according to the above-mentioned assay, the exemplary antibodies were detected using a human BCMA antigen (ACRO Biosystems) and a monkey BCMA antigen (ACRO Biosystems). The detection results of the affinities to human BCMA are shown in Table 6; and the detection results of the affinities to monkey BCMA are shown in Table 7.

Cyno BCMA-Fc = target: T4, Cyno BCMA-Fc (monkey (cyno), UniProt A0A2K5UD97 1-53); assay: BLI (Octet Red96e), SA or AHC sensors, 1:1 fit
T4 construct: also called monkey BCMA antigen (ACRO Biosystems); not shown: Fc tag of the bought antigen
Protocol: as §3, §4, §5

Human CD3D&E-Bio = target: T5, Human CD3D&E-Bio (human, UniProt P07766 23-126; P04234 22-105, biotin-labeled (site not stated)); assay: BLI (Octet Red96e), SA or AHC sensors, 1:1 fit
T5 construct: Bought heterodimer antigen; also called human CD3D&E heterodimer antigen (ACRO Biosystems); human CD3E
Protocol: as §3, §4
(§6) In experiments performed according to the above-mentioned assay, the affinities of the exemplary antibodies were detected using a human CD3D&E heterodimer antigen (ACRO Biosystems) and a monkey CD3D&E heterodimer antigen (ACRO Biosystems). The binding affinities of GPRC5D×CD3 bispecific antibodies hz5E12.1-P1/SP34.24 and hz5E12.1-P1/SP34.87 to human/monkey CD3D&E were also detected.

Cyno CD3D&E-Bio = target: T6, Cyno CD3D&E-Bio (monkey (cyno), UniProt Q95LI5 22-117; Q95LI8 22-105, biotin-labeled (site not stated)); assay: BLI (Octet Red96e), SA or AHC sensors, 1:1 fit
T6 construct: Bought heterodimer antigen; also called monkey CD3D&E heterodimer antigen (ACRO Biosystems); monkey CD3E
Protocol: as §3, §4, §6

T2 sequence (P07766 23-207): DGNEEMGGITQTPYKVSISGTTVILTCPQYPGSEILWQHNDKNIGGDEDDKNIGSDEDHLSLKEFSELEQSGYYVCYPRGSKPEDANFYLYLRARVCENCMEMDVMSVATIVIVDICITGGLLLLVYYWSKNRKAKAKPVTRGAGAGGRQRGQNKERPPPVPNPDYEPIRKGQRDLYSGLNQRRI
T5 sequence (P07766 23-126 limits assumed, chain 1 of 2): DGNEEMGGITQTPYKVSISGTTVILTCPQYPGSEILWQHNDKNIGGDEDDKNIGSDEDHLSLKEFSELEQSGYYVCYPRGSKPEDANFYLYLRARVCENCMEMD
T5 sequence (P04234 22-105 limits assumed, chain 2 of 2): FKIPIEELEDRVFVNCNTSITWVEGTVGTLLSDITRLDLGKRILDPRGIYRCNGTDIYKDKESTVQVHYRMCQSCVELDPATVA
T4 sequence (A0A2K5UD97 entry or part of it): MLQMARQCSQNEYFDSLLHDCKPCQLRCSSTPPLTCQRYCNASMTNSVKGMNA
T1 sequence (Q9NZD1 whole entry): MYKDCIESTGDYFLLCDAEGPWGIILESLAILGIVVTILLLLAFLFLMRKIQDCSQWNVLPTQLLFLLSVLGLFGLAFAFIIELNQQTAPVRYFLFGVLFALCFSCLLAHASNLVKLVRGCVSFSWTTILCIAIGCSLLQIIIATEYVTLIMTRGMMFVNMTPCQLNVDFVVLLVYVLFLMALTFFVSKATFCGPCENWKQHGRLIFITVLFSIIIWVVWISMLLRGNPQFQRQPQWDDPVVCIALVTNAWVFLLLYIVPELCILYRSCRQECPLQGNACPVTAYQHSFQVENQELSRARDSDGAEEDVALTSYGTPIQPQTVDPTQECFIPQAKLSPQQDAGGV
T6 sequence (Q95LI5 22-117 limits assumed, chain 1 of 2): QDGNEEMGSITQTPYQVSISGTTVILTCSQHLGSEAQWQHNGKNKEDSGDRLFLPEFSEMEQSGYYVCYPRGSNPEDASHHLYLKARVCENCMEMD
T6 sequence (Q95LI8 22-105 limits assumed, chain 2 of 2): as the sequence (P04234 22-105 limits assumed, chain 2 of 2) above, with I5V, N15K, I20V, S32T, D33N, I34N, T64A, S74N, V83L counted along it

Row | Binder | EC50 (human GPRC5D [1]) [nM] | EC50 (human GPRC5D [2]) [nM] | EC50 (human GPRC5D [3]) [nM] | EC50 (human GPRC5D [4]) [nM] | EC50 of Jurkat-NFAT-Luc luciferase activation; tumor cells 8226 [7] [nM] | EC50 of Jurkat-NFAT-Luc luciferase activation; tumor cells H929 [7] [nM] | EC50 of Jurkat-NFAT-Luc luciferase activation; tumor cells L363 [7] [nM] | EC50 of Jurkat-NFAT-Luc luciferase activation; tumor cells U266 [7] [nM] | EC50 of Jurkat-NFAT-Luc luciferase activation; tumor cells ARD [8] [nM] | EC50 of Jurkat-NFAT-Luc luciferase activation; tumor cells MM.1S [8] [nM] | other results
1 | HB15H1G1 (antibody, V domains shown, Fully human anti-GPRC5D antibody; also called HB15H1B1) VH: QVQLVESGGGVVQPGRSLRLSCTASGFTFSSYGLHWVRQAPGKGLEWVAVIWYDGSNKYYIDSVKGRFIISRDNSKNTLYLQMNSLRAEDTAVYYCARFTMFRGITLDYWGQGTLVTVSS VL: DIQMTQSPSSLSASVGDRVTITCRASQRINSYLNWYQQKPGKAPKLLIYAASSLQSGVPSRFSGSGSGTDFTLTISNLQPEDFATYYCQQSYSTPLTFGGGTKVEIK | 3.7 | 9.4 | 0.7 | 1.89 |  |  |  |  |  |  | 
2 | ch11B7 (antibody, V domains shown) VH: EVQLQQSVAELARPGASVKMSCKASGYTFTTYTMHWVKQRPGQGLEWIGFIIPSSGYTSYNQNFKDKVTLTADKSSSTAYMQLSSLTSEDSAVYFCTGGQARAYYPLDYWGQGTSVTVSS VL: DIVMTQSPAILSVSPGERVSFSCRASQSIGTTIHWYQQRSNGSPRLLIKYASESISGIPSRFSGSGSGTYFTLSINSVESEDIADYFCQQSYNWPRTFGGGTKLEIK | 5.99 |  |  | 1.14 |  |  |  |  |  |  | 
3 | ch5E12C4 (antibody, V domains shown) VH: EVQLQQSGPELVKPGASVKMSCKASGYTFIGYVMHWVKRKPGQGLEWIGYINPYNDVSQHNGKFKGKATLTSDKSSSTAYMELSSLTSEDSAVYYCAREGRLGLRVLAYWGQGTLVTVSA VL: not shown | 21.7 | 100 | 3.7 | 9.18 |  |  |  |  |  |  | 
4 | BCMA×CD3 bispecific antibody 46758 (bispecific antibody, human IgG1, kappa, L234A L235A) chain 1: not shown chain 2: not shown chain 3: DIVMTQSPDSLAVSLGERATINCKSSQSLLNARTGKNYLAWYQQKPGQPPKLLIYWASTRESGVPDRFSGSGSGTDFTLTISSLQAEDVAVYYCKQSYSRRTFGCGTKVEIKGGGGSGGGGSGGGGSGGGGSQVQLVQSGAEVKKPGASVKVSCKASGFNIKDYYMHWVRQAPGQCLEWMGWIDLENANTVYNAKFQGRVTITRDTSASTAYMELSSLRSEDTAVYYCARDAYGRYFYDVWGQGTLVTVSSGSEPKSSDKTHTCPPCPAPEAAGGPSVFLFPPKPKDTLMISRTPEVTCVVVDVSHEDPEVKFNWYVDGVEVHNAKTKPREEQYNSTYRVVSVLTVLHQDWLNGKEYKCKVSNKALPAPIEKTISKAKGQPREPQVCTLPPSRDELTKNQVSLSCAVKGFYPSDIAVEWESNGQPENNYKTTPPVLDSDGSFFLVSKLTVDKSRWQQGNVFSCSVMHEALHNHYTQKSLSLSPGK |  |  |  |  | 0.0798 | 0.0835 | 0.0901 | 0.603 | 0.133 | 0.159 | EC50 of Jurkat-NFAT-Luc luciferase activation; tumor cells H929 [5]: 0.07 nM; EC50 of Jurkat-NFAT-Luc luciferase activation; tumor cells L363 [5]: 0.43 nM; EC50 of Jurkat-NFAT-Luc luciferase activation; target cells huGPRC5D-GS-CHO [6]: 0.0059 nM; EC50 of Jurkat-NFAT-Luc luciferase activation; tumor cells H929 [6]: 0.344 nM; EC50 of Jurkat-NFAT-Luc luciferase activation; tumor cells L363 [6]: 0.192 nM; EC50 of Jurkat-NFAT-Luc luciferase activation; tumor cells U266 [6]: 0.0311 nM; EC50 of Jurkat-NFAT-Luc luciferase activation; tumor cells 8226 [9]: 0.0798 nM; EC50 of Jurkat-NFAT-Luc luciferase activation; tumor cells H929 [9]: 0.0835 nM; EC50 of Jurkat-NFAT-Luc luciferase activation; tumor cells L363 [9]: 0.0901 nM; EC50 of Jurkat-NFAT-Luc luciferase activation; tumor cells U266 [9]: 0.603 nM
5 | TS-F2-4 (hz5E12.1.P1/SP34.24/38456) (antibody, human IgG1, kappa, lambda, L234A L235A) heavy 1: not shown light 1: DIVMTQSPDSLAVSLGERATINCRASESVDSYGITFMNWYQQKPGQPPKLLIYAASNQGSGVPDRFSGSGSGTDFTLTISSLQAEDVAVYYCQQSKEVPWTFGQGTKLEIKRTVAAPSVFIFPPSDEQLKSGTASVVCLLNNFYPREAKVQWKVDNALQSGNSQESVTEQDSKDSTYSLSSTLTLSKADYEKHKVYACEVTHQGLSSPVTKSFNRGEC heavy 2: not shown light 2: QAVVTQEPSLTVSPGGTVTLTCRSSTGAVTTSNYANWVQQKPGQAPRGLIGGTNKRAPGVPARFSGSLLGDKAALTLLGAQPEDEAEYYCALWYSNLWVFGQGTKLTVLGQPKAAPSVTLFPPSSEELQANKATLVCLISDFYPGAVTVAWKADSSPVKAGVETTTPSKQSNNKYAASSYLSLTPEQWKSHRSYSCQVTHEGSTVEKTVAPTECS |  |  |  |  | 0.00788 | 0.00738 | 0.00629 | 0.0503 | 0.00238 | 0.00179 | EC50 (human GPRC5D [10]): 40 nM; Kd (Human BCMA-Bio): 2.27 nM; koff (Human BCMA-Bio): 0.000297 s⁻¹; kon (Human BCMA-Bio): 131000 M⁻¹ s⁻¹; Kd (Cyno BCMA-Fc): 0.204 nM; koff (Cyno BCMA-Fc): 0.0002 s⁻¹; kon (Cyno BCMA-Fc): 980000 M⁻¹ s⁻¹; Kd (Human CD3D&E-Bio): 22.1 nM; koff (Human CD3D&E-Bio): 0.00326 s⁻¹; kon (Human CD3D&E-Bio): 147000 M⁻¹ s⁻¹; Kd (Cyno CD3D&E-Bio): 22.7 nM; koff (Cyno CD3D&E-Bio): 0.00301 s⁻¹; kon (Cyno CD3D&E-Bio): 132000 M⁻¹ s⁻¹
6 | ch7F5D4 (antibody, V domains shown) VH: DVQLQESGPGLVKPSQSLSLTCTVTGYSITSDYAWNWIRQFPGNKLEWMVYIDYTGRTSYNPSLKSRISLTRDTSKNQFFLQFNSVTTEDTATYYCARGNYGRYYYVMDYWGQGTSVTVSS VL: DIQMTQTTSSLSASLGDRVTISCRASQDIRNYLNWYQQRPDGTIKLLIYYTSRLHSGVPSRFSGSGSGTDYSLTISNLDQEDFATYFCQQGNMLPWTFGGGTSLEIK | 7.3 | 6.3 | 0.5 | 2.59 |  |  |  |  |  |  | 
